Holding throughout (experiment): MST
Test [1] concerns the target H3K9me1 MLA (Methyl Lysine Analog) histone H3 (UniProt P84233).
Test [2] concerns the target H3K9me2 MLA (Methyl Lysine Analog) histone H3 (UniProt P84233).
Test [3] addresses H3K9me3 MLA (Methyl Lysine Analog) histone H3 (UniProt P84233).

The term Kd denotes the constant that tells how readily two partners part at equilibrium. Low values mean higher affinity, high ones lower affinity.

In the case of “EAP-1 chromodomain fused to GST (EAP-1chromo) (domain or fragment)”, the Kd in test [1] was determined as 6.14 µM; in test [2], 2.05 µM; in test [3], 0.157 µM.

Values taken from paper PMC4012616.
